Results from US20210388040A1.

Target: SMARCD1 (human) (UniProt Q96GM5)
Assay: HA-bait purification from HEK-293T nuclear extract, mass spectrometry, peptide count

Sequence of SMARCD1 (human) (Q96GM5 whole entry): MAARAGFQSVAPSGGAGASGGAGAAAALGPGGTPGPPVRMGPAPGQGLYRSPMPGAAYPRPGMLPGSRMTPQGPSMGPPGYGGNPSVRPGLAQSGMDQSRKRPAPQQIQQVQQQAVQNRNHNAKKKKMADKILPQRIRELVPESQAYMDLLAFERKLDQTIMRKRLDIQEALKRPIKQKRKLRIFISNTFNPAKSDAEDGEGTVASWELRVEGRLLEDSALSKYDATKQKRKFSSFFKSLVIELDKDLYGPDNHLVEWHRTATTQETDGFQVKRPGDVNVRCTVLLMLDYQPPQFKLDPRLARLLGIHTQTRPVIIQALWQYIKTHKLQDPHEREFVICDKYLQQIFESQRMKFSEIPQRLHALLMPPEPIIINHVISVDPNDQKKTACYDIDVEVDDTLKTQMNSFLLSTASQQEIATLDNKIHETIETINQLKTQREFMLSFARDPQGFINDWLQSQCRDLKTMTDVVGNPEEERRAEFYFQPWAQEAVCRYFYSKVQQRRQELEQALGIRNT

B1: HA-BRD7 (protein, human)
chain: MYPYDVPDYAMGKKHKKHKSDKHLYEEYVEKPLKLVLKVGGNEVTELSTGSSGHDSSLFEDKNDHDKHKDRKRKKRKKGEKQIPGEEKGRKRRRVKEDKKKRDRDRVENEAEKDLQCHAPVRLDLPPEKPLTSSLAKQEEVEQTPLQEALNQLMRQLQRKDPSAFFSFPVTDFIAPGYSMIIKHPMDFSTMKEKIKNNDYQSIEELKDNFKLMCTNAMIYNKPETIYYKAAKKLLHSGMKILSQERIQSLKQSIDFMADLQKTRKQKDGTDTSQSGEDGGCWQREREDSGDAEAHAFKSPSKENKKKDKDMLEDKFKSNNLEREQEQLDRIVKESGGKLTRRLVNSQCEFERRKPDGTTTLGLLHPVDPIVGEPGYCPVRLGMTTGRLQSGVNTLQGFKEDKRNKVTPVLYLNYGPYSSYAPHYDSTFANISKDDSDLIYSTYGEDSDLPSDFSIHEFLATCQDYPYVMADSLLDVLTKGGHSRTLQEMEMSLPEDEGHTRTLDTAKEMEITEVEPPGRLDSSTQDRLIALKAVTNFGVPVEVFDSEEAEIFQKKLDETTRLLRELQEAQNERLSTRPPPNMICLLGPSYREMHLAEQVTNNLKELAQQVTPGDIVSTYGVRKAMGISIPSPVMENNFVDLTEDTEEPKKTDVAECGPGGS
A Total of 73 peptides and a Unique of 44 peptides were found for B1 in this work.
